US20200317768A1 (published 2020)

T1: cynomolgus monkey FcγRIIa1 extracellular domain, C-terminal His-tag (cynomolgus monkey)
T1 construct: also called cyno FcγRIIa1; cynoFcgRIIa1
T1 chain: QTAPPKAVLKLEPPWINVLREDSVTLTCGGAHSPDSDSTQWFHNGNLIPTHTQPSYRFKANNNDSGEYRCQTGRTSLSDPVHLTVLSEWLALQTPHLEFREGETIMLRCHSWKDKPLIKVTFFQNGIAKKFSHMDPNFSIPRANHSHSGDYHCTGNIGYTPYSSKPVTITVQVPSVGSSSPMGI

T2: cynomolgus monkey FcγRIIa2 extracellular domain, C-terminal His-tag (cynomolgus monkey)
T2 construct: also called cyno FcγRIIa2; cynoFcgRIIa2
T2 chain: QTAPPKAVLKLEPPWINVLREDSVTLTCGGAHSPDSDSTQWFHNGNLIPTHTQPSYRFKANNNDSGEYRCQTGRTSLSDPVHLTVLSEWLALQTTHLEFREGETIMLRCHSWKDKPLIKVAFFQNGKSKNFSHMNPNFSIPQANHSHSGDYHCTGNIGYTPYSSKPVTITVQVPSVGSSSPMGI

T3: cynomolgus monkey FcγRIIa3 extracellular domain, C-terminal His-tag (cynomolgus monkey)
T3 construct: also called cyno FcγRIIa3; cynoFcgRIIa3
T3 chain: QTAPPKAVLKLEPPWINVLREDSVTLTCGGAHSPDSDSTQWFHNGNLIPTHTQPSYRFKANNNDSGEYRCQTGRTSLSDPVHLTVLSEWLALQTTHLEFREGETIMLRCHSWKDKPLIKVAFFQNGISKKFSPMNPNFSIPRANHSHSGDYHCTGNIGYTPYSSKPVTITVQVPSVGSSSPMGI

T4: cynomolgus monkey FcγRIIb extracellular domain, C-terminal His-tag (cynomolgus monkey)
T4 construct: also called cyno FcγRIIb; cynoFcγRIIb
T4 chain: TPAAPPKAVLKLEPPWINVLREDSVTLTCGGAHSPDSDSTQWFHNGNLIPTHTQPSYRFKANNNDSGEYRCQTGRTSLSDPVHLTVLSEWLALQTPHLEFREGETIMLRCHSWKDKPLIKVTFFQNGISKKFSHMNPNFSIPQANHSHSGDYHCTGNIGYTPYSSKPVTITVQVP

T5: cynomolgus monkey FcγRIIIaS extracellular domain, C-terminal His-tag (cynomolgus monkey, UniProt Q8SPW2 21-206 at identity 1.00))
T5 construct: also called cyno FcγRIIIaS; cynoFcγRIIIaS
T5 chain: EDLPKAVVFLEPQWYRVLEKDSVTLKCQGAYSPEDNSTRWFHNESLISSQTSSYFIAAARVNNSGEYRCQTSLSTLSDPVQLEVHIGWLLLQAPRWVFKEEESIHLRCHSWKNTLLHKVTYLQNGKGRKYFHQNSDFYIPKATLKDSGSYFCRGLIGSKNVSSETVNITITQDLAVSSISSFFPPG

T6: human FcγRIIb extracellular domain, C-terminal His-tag (human, UniProt P31994 43-217)
T6 construct: also called human FcgRIIb; FcgRIIb
T6 sequence: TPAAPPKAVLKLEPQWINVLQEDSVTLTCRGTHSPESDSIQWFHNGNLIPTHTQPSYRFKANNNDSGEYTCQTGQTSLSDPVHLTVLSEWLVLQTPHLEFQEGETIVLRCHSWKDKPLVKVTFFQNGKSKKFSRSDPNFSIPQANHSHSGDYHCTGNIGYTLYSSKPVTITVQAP

B1: M103205H795-MY101/M103202L889-SK1 (antibody, human IgG1, kappa)
heavy: QVTLKESGPVLVKPTETLTLTCTVSGIDLSHDDISWVRQAPGKGLEWVGIISYAGSTYYASWAKGRLTISKDTSKNQVVLTMTNMDPVDTATYYCARGVPAYSHGGDLWGQGTLVTVSSASTKGPSVFPLAPSSKSTSGGTAALGCLVKDYFPEPVTVSWNSGALTSGVHTFPAVLQSSGLYSLSSVVTVPSSSLGTQTYICNVNHKPSNTKVDKKVEPKSCDKTHTCPPCPAPELLNGPSVFLFPPKPKDTLMISRTPEVTCVVVDVSEEDPEVKFNWYVDGVEVHNAKTKPREEQYNSTYRVVSVLTVLHQDWLNGKEYKCKVSNKALPKPIEKTISKAKGQPREPQVYTLPPSREEMTKNQVSLTCLVKGFYPSDIAVEWESNGQPENNYKTTPMVLDSDGSFFLYSKLTVDKSRWQQGNVFSCSVMHEALHNHYTQKSLSLSP
light: DIVMTQSPATLSLSPGERATLSCTSSQSVYHANWLSWFQQKPGQPPKLLIYWASTLAYGVPSRFSGSGSGTDFTLTISSLQPEDAATYYCAGGYGGGRYAFGQGTKVEIKRTVAAPSVFIFPPSDEQLKSGTASVVCLLNNFYPREAKVQWKVDNALQSGNSQESVTEQDSKDSTYSLSSTLTLSKADYEKHKVYACEVTHQGLSSPVTKSFNRGEC
notes: also called MS1032LO06-MY101
B2: M103205H795-MY115/M103202L889-SK1 (antibody, human IgG1, kappa)
heavy: QVTLKESGPVLVKPTETLTLTCTVSGIDLSHDDISWVRQAPGKGLEWVGIISYAGSTYYASWAKGRLTISKDTSKNQVVLTMTNMDPVDTATYYCARGVPAYSHGGDLWGQGTLVTVSSASTKGPSVFPLAPSSKSTSGGTAALGCLVKDYFPEPVTVSWNSGALTSGVHTFPAVLQSSGLYSLSSVVTVPSSSLGTQTYICNVNHKPSNTKVDKKVEPKSCDKTHTCPPCPAPELLNGPSVFLFPPKPKDTLMISRTPEVTCVVVDVAEEDPEVKFNWYVDGVEVHNAKTKPREEQYNSTYRVVSVLTVLHQDWLNGKEYKCKVSNKALPAPIEKTISKAKGQPREPQVYTLPPSREEMTKNQVSLTCLVKGFYPSDIAVEWESNGQPENNYKTTPMVLDSDGSFFLYSKLTVDKSRWQQGNVFSCSVMHEALHNHYTQKSLSLSP
light: DIVMTQSPATLSLSPGERATLSCTSSQSVYHANWLSWFQQKPGQPPKLLIYWASTLAYGVPSRFSGSGSGTDFTLTISSLQPEDAATYYCAGGYGGGRYAFGQGTKVEIKRTVAAPSVFIFPPSDEQLKSGTASVVCLLNNFYPREAKVQWKVDNALQSGNSQESVTEQDSKDSTYSLSSTLTLSKADYEKHKVYACEVTHQGLSSPVTKSFNRGEC
notes: Substitutions introduced into M103205H795-SG1; expressed with M103202L889-SK1 as light chain
B3: M103205H795-MY105/M103202L889-SK1 (antibody, human IgG1, kappa)
heavy: QVTLKESGPVLVKPTETLTLTCTVSGIDLSHDDISWVRQAPGKGLEWVGIISYAGSTYYASWAKGRLTISKDTSKNQVVLTMTNMDPVDTATYYCARGVPAYSHGGDLWGQGTLVTVSSASTKGPSVFPLAPSSKSTSGGTAALGCLVKDYFPEPVTVSWNSGALTSGVHTFPAVLQSSGLYSLSSVVTVPSSSLGTQTYICNVNHKPSNTKVDKKVEPKSCDKTHTCPPCPAPELLNGPVVFLFPPKPKDTLMISRTPEVTCVVVDVSEEDPEVKFNWYVDGVEVHNAKTKPREEQYNSTYRVVSVLTVLHQDWLNGKEYKCKVSNKALPAPIEKTISKAKGQPREPQVYTLPPSREEMTKNQVSLTCLVKGFYPSDIAVEWESNGQPENNYKTTPMVLDSDGSFFLYSKLTVDKSRWQQGNVFSCSVMHEALHNHYTQKSLSLSP
light: DIVMTQSPATLSLSPGERATLSCTSSQSVYHANWLSWFQQKPGQPPKLLIYWASTLAYGVPSRFSGSGSGTDFTLTISSLQPEDAATYYCAGGYGGGRYAFGQGTKVEIKRTVAAPSVFIFPPSDEQLKSGTASVVCLLNNFYPREAKVQWKVDNALQSGNSQESVTEQDSKDSTYSLSSTLTLSKADYEKHKVYACEVTHQGLSSPVTKSFNRGEC
notes: as for B2
B4: M103205H795-MY141/M103202L889-SK1 (antibody, human IgG1, kappa)
heavy: QVTLKESGPVLVKPTETLTLTCTVSGIDLSHDDISWVRQAPGKGLEWVGIISYAGSTYYASWAKGRLTISKDTSKNQVVLTMTNMDPVDTATYYCARGVPAYSHGGDLWGQGTLVTVSSASTKGPSVFPLAPSSKSTSGGTAALGCLVKDYFPEPVTVSWNSGALTSGVHTFPAVLQSSGLYSLSSVVTVPSSSLGTQTYICNVNHKPSNTKVDKKVEPKSCDKTHTCPPCPAPELLNGPSVFLFPPKPKDTLMISRTPEVTCVVVDVAHEDPEVKFNWYVDGVEVHNAKTKPREEQYNSTYRVVSVLTVLHQDWLNGKEYKCKVSNKALPAPIEKTISKAKGQPREPQVYTLPPSREEMTKNQVSLTCLVKGFYPSDIAVEWESNGQPENNYKTTPMVLDSDGSFFLYSKLTVDKSRWQQGNVFSCSVMHEALHNHYTQKSLSLSP
light: DIVMTQSPATLSLSPGERATLSCTSSQSVYHANWLSWFQQKPGQPPKLLIYWASTLAYGVPSRFSGSGSGTDFTLTISSLQPEDAATYYCAGGYGGGRYAFGQGTKVEIKRTVAAPSVFIFPPSDEQLKSGTASVVCLLNNFYPREAKVQWKVDNALQSGNSQESVTEQDSKDSTYSLSSTLTLSKADYEKHKVYACEVTHQGLSSPVTKSFNRGEC
notes: as for B2
B5: M103205H795-MY117/M103202L889-SK1 (antibody, human IgG1, kappa)
heavy: QVTLKESGPVLVKPTETLTLTCTVSGIDLSHDDISWVRQAPGKGLEWVGIISYAGSTYYASWAKGRLTISKDTSKNQVVLTMTNMDPVDTATYYCARGVPAYSHGGDLWGQGTLVTVSSASTKGPSVFPLAPSSKSTSGGTAALGCLVKDYFPEPVTVSWNSGALTSGVHTFPAVLQSSGLYSLSSVVTVPSSSLGTQTYICNVNHKPSNTKVDKKVEPKSCDKTHTCPPCPAPEWLNGPSVFLFPPKPKDTLMISRTPEVTCVVVDVAEEDPEVKFNWYVDGVEVHNAKTKPREEQYNSTYRVVSVLTVLHQDWLNGKEYKCKVSNKALPAPIEKTISKAKGQPREPQVYTLPPSREEMTKNQVSLTCLVKGFYPSDIAVEWESNGQPENNYKTTPMVLDSDGSFFLYSKLTVDKSRWQQGNVFSCSVMHEALHNHYTQKSLSLSP
light: DIVMTQSPATLSLSPGERATLSCTSSQSVYHANWLSWFQQKPGQPPKLLIYWASTLAYGVPSRFSGSGSGTDFTLTISSLQPEDAATYYCAGGYGGGRYAFGQGTKVEIKRTVAAPSVFIFPPSDEQLKSGTASVVCLLNNFYPREAKVQWKVDNALQSGNSQESVTEQDSKDSTYSLSSTLTLSKADYEKHKVYACEVTHQGLSSPVTKSFNRGEC
notes: as for B2

How the values were obtained:
Experiment in all cases: SPR (Biacore), antibody captured, FcgR analyte
[1] = biological target: T1, cynomolgus monkey FcγRIIa1 …
[2] = biological target: T2, cynomolgus monkey FcγRIIa2 …
[3] = biological target: T3, cynomolgus monkey FcγRIIa3 …
[4] = biological target: T4, cynomolgus monkey FcγRIIb extracellular …
[5] = biological target: T5, cynomolgus monkey FcγRIIIaS …
[6] = biological target: T6, human FcγRIIb extracellular domain, …
[7] = biological target: T7, human FcγRIIIaV extracellular domain, C-terminal His-tag (human, UniProt P08637 17-208)
T7 construct: also called human FcgRIIIaV; FcgRIIIaV
T7 sequence (P08637 17-208 F176V): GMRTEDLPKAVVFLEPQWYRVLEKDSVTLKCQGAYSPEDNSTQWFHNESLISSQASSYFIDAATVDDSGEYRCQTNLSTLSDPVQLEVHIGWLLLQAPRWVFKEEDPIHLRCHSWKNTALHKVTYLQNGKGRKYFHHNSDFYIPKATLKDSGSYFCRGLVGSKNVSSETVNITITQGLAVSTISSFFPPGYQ

| Binder | Kd [1] [µM] | Kd [2] [µM] | Kd [3] [µM] | Kd [4] [µM] | Kd [5] [µM] | Kd [6] [µM] | Kd [7] [µM] |
| --- | --- | --- | --- | --- | --- | --- | --- |
| B1 | 1.1 | 1.2 | 36 | 0.55 | 32 | 0.49 | 11 |
| B2 | 2.3 | 2.7 | 76 | 0.78 | 0.85 | 0.82 | 8.6 |
| B3 | 12 | 0.9 | 13 | 0.39 | 13 | 0.57 | 5.9 |
| B4 | 22 | 2.8 | 20 | 1.8 | 47 | 1.1 | 12 |
| B5 | 2.6 | 3.2 | 9.9 | 1 | 1 | 0.6 | 7.3 |
